Experiment [1] addresses T1, Angiotensin I converting enzyme (UniProt P12822).
T1 sequence: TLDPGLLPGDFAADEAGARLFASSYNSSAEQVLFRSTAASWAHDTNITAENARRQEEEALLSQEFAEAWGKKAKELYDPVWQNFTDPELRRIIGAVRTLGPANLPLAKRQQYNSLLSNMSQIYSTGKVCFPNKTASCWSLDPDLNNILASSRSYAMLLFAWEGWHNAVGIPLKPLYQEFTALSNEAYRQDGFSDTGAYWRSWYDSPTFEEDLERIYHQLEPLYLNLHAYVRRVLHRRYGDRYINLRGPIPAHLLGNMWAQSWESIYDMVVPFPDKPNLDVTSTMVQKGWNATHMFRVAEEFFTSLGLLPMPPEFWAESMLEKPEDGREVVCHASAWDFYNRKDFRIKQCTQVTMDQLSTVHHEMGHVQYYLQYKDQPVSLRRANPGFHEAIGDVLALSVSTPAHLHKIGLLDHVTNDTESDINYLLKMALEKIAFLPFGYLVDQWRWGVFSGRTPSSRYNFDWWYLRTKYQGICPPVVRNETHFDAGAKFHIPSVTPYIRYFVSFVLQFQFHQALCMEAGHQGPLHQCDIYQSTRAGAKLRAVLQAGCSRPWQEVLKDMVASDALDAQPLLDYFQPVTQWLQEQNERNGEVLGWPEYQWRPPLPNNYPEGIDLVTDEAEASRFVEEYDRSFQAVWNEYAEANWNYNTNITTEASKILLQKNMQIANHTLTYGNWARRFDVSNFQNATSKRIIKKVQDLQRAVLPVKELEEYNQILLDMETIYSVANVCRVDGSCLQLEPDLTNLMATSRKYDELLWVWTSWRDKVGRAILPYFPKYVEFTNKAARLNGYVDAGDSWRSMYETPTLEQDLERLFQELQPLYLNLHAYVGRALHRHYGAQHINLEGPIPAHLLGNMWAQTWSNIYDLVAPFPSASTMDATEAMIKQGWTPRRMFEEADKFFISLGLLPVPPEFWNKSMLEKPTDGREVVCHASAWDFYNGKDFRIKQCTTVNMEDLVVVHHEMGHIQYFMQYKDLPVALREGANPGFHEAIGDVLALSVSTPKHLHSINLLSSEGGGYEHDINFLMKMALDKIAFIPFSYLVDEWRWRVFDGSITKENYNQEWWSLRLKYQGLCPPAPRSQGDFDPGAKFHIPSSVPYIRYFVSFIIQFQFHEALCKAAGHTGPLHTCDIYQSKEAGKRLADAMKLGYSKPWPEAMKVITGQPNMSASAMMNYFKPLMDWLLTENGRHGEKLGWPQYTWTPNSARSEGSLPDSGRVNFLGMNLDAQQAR

Experiment [2] has as its target T1, Angiotensin I converting enzyme. The source holds these as a separate data set.
Experiment [3] addresses T2, ACE (Oryctolagus cuniculus, UniProt P12822).
T2 construct: purchased Sigma-Aldrich (Shanghai, China)
T2 sequence (P12822 34-1310): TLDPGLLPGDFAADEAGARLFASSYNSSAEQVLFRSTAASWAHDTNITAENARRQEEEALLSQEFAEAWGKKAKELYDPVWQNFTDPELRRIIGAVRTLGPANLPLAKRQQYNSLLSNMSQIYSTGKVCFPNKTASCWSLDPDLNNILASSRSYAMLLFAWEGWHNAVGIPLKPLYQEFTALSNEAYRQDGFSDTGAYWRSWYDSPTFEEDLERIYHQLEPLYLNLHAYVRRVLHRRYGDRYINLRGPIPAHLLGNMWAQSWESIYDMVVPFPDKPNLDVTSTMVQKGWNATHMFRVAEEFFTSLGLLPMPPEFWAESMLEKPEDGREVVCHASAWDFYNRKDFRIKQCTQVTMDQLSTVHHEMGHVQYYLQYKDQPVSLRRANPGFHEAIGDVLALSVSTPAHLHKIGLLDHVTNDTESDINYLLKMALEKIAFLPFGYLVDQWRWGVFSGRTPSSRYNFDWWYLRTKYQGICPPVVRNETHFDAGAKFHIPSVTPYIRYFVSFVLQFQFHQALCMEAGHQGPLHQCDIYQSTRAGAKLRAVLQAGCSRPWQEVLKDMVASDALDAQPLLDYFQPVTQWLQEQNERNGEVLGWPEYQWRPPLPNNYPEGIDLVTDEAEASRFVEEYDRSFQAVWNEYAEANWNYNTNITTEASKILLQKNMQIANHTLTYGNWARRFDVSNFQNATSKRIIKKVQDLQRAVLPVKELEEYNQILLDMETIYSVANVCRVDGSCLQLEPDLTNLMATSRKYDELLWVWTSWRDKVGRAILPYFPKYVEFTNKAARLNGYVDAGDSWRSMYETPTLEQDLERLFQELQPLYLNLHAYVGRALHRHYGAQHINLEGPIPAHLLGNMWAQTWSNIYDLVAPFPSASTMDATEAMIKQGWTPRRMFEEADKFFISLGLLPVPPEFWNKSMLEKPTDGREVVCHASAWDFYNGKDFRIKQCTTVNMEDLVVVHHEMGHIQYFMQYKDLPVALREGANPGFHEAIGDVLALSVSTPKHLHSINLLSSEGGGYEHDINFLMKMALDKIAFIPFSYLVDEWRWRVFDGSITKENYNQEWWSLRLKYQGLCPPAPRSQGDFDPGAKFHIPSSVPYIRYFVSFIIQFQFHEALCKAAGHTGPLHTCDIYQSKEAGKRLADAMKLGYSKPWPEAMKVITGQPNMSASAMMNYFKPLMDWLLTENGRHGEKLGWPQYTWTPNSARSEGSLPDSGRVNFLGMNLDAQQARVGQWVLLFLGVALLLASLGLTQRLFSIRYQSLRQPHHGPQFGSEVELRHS
Particulars: cited from earlier work. The text has this:
Table 2 Summary of ACE inhibitory peptides having similar structure with purified peptides. | column: IC50 (μM) || Table 3 Inhibition pattern of ACE inhibitory peptides derived from marine products. | column: Inhibition Pattern; IC50 (μM)

These results are taken from publication PMC6723713, “Purification, Characterization and Evaluation of Inhibitory Mechanism of ACE Inhibitory Peptides from Pearl Oyster (Pinctada fucata martensii) Meat Protein Hydrolysate” (Marine Drugs, 2019).

Where two headings read alike, the source gives them in different places.

In turn, “Gly-Trp-Ala, purified from pearl oyster meat protein hydrolysate (fraction F62) (peptide)” returned an IC50 of ACE inhibitory activity (enzyme activity on HHL), peptide purified from POMPH in experiment [1] of 109 µM. Moreover, the ACE inhibitory activity (%) of fraction F62 at a protein concentration of 0.54 mg/mL in experiment [2] stood at 84.7%. Take Gly-Trp-Ala, synthesized (peptide): the IC50 of ACE inhibitory activity (enzyme activity on HHL), synthesized peptide in experiment [1] worked out at 98.9 µM.

For orientation: IC50 means the concentration at which inhibition is half-maximal. On to HLPLP, for which the IC50 in experiment [3] (ref [28]) is 41 µM. Regarding HLPLPLL, in experiment [3] (ref [28]), the IC50 is 34.4 µM. On to IWHHT, for which, in experiment [3] (ref [28]), the IC50 is 5.1 µM. VELYP: in experiment [3] (ref [34]), the IC50 is 5.22 µM and the “Inhibition Pattern” value is listed as “Non-competitive”. On to VVYPWTTQRF, for which, in experiment [3] (ref [35]), the concentration for half-maximal inhibition (IC50) is 66 µM and the “Inhibition Pattern” value was “Non-competitive”. For the molecule VWDPPKFD, in experiment [3] (ref [31]), the concentration for half-maximal inhibition (IC50) was 9.1 µM and the “Inhibition Pattern” value is “Non-competitive”. Consider VWYHT, for which, in experiment [3] (ref [28]), the IC50 was 28.3 µM.

B1: His-Leu-His-Thr, synthesized (peptide)
peptide: HLHT
B1: the IC50 of ACE inhibitory activity (enzyme activity on HHL), synthesized peptide in experiment [1] was determined as 452 µM.

B2: His-Leu-His-Thr, purified from pearl oyster meat protein hydrolysate (fraction F51) (peptide)
peptide: HLHT
In turn, B2 displayed an IC50 of ACE inhibitory activity (enzyme activity on HHL), peptide purified from POMPH in experiment [1] of 458 µM. Further, the ACE inhibitory activity (%) of fraction F51 at a protein concentration of 0.54 mg/mL in experiment [2] was 64.7%.
